Test [1] has as its target T1, prefusion Hendra virus (HeV) F (Hendra virus, reference strain …, stabilised).
T1 chain: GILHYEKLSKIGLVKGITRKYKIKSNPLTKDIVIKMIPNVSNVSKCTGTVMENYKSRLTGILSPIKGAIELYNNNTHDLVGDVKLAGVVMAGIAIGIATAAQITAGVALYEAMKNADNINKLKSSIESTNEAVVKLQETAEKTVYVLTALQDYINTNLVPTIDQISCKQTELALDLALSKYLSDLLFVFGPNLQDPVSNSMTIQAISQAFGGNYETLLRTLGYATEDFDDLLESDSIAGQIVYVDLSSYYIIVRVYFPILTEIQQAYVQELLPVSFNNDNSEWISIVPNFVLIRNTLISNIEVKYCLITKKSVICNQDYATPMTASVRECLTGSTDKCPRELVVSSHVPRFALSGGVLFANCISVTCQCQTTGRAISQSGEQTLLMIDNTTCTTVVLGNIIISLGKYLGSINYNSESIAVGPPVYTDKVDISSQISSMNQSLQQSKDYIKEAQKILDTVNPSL
The test can be described thus: BLI. Conditions: both partners purified.

Test [2] has as its target T2, prefusion Hendra virus (HeV) F protein (Hendra virus, reference strain …).
T2 chain: T1 chain
The test can be described thus: BLI. Conditions: both partners purified.

B1: Fab 2D3 (Fab, V domains shown)
VH: QVQLKQSGPGLVAPSQSLSITCTVSGFSLTSYALSWVRQPPGKGLEWLGVIWVGGVTNYNSALKSRLTISKDNSKSQVFLKMNSLQSEDTARYYCASRHLSTGAMDYWGQGTSVTVSA
VL: DVLMTQSPLSLPVSLGDQASISCRSSQSIVHSNGDTYFEWYLQKPGQSPKLLIYKVSNRFSGVPNRFSGSGSGTDFTLKISRVEAEDLGVYYCFQGSYVPYTFGGGTKLEIK
notes: recombinant Fab of m5
As to B1, the binding result in test [1] is reported as “binds”.

B2: Fab 1H8 (Fab, V domains shown)
VH: EVQLQQSGPELVKPGASVKISCKASGYSFTGYTMNWVKQSHGKNLEWIGLINPFIGGTRYNQKFKGKATLTVDKSSRTAYMELLSLTSEDSAVYYCAREADYDWYFDVWGAGTTVTVSS
VL: DIQMTQTTSSLSASLGDRVTISCRASQDISNYLHWYQQKPDGTVNLLIFYTSRLHSGVPSRFSGSGSGTDYSLTISNLEQEDIATYFCQQGNTLPRTFGGGTKLEIK
notes: recombinant Fab of m6
For B2, in test [1], the binding result is recorded as “binds”.

B3: Fab 2B12 (Fab, V domains shown)
V domain 1: EVQLVESGGGLVQPKGSLKLSCAASGFIFNTYAMHWVRQAPGKGLEWVARIRSKSSNYATYYADSVKDRFTISRDDSQSMLYLQMNNLKTEDTAMYYCVREGGYYFDYWGQGTTLTFSA
V domain 2: DIVMSQSPSSLAVSVGEKVTMSCKSSQSLLHVSNQKNYLAWYQQKPGQSPKLLIYWASTRESGVPDRFTGSGSGTDFTLTISSVKAEDLAVYYCQQYYSYPWPFGGGTKLKSN
As to B3, the binding result in test [2] is listed as “binds”.

B4: Fab 2B12 (Fab, V domains shown)
V domain 1: B3 V domain 1
V domain 2: B3 V domain 2
notes: recombinant Fab of m9
With B4, the binding result in test [1] is “binds”.

B5: Fab 4F6 (Fab, V domains shown)
VH: QVQLQQSGAELVKPGASVKLSCKASGYTFTSNWMHWVKQRPGRGLEWIGRIDPNSGGTKYNEKFKSKATLTVDKPSSTAYMQLSSLTSEDSAVYYCARDGHYAYFDVWAPGTTVTVSS
VL: DIVMTQSQKFMSTSVGDRVSVTCKASQNVGTTVAWYQQKPGQSPNALIYSASYRYTGVPDRFTGSGSGTDFTLTISNVQSEDLAEYFCQQYNRYPWTFGGGTKLEIK
In the case of B5, the binding result in test [2] was “binds”.

B6: Fab 4F6 (Fab, V domains shown)
VH: B5 VH
VL: B5 VL
notes: recombinant Fab of m13
B6: in test [1], the binding result was “binds”.

B7: Fab 1H1 (Fab, V domains shown)
VH: VQLQQSGAELMRPGASMKISCKATGYTFSSYWIDWVKQRPGHGLEWIGEILPGSGDTNYNENFKGKAAFTADTSSNTAYMQLTSLTSEDSAVFYCARGGRYHGQGFFDYWGQGTTLTVSS
VL: IQMTQSPASLSASVGETVTITCRPSENVHIYLAWYQQKQGKSPQLLVYNAKTLADGVPSRFSGSASGTQFSLKINSLQPEDFGSYYCQHFWSIPYTFGGGTKLEIK
On to B7, for which the binding result in test [2] is given as “binds”.

B8: Fab 1H1 (Fab, V domains shown)
VH: B7 VH
VL: B7 VL
notes: recombinant Fab of m8
Regarding B8, the binding result in test [1] was “binds”.

B9: Fab 1F2 (Fab, V domains shown)
VH: EVQLQQSGPELVKPGVSLKISCKASGYSFTDYTMNWVKQSHGKNLEWIGLINPYIGGTRYNQKFKGKATLTVDKSSSTAYLELLSLTSEDSAVYYCARFSGSSNRAMDYWGQGTSVTVSS
VL: DIQMTQSPASLSASVGETVTITCGASENIYGALNWYQRKQGKSPQLLIYGATNLADGMSSRFSGSGSARQYSLKISSLHPDDVATYYCQNVLSIPWTFGGGTKLEIK
As to B9, in test [2], the binding result is recorded as “binds”.

B10: Fab 1F2 (Fab, V domains shown)
VH: B9 VH
VL: B9 VL
notes: recombinant Fab of m12
Consider B10, for which the binding result in test [1] is on record as “binds”.

B11: Fab 1A9 (Fab, V domains shown)
VH: QVQLQQSGAELVRPGTSVKISCKASGYTFTNYWLGWVKQRPGHGLEWIGDIYRGGGYTNYNEKFKGKATLTADTSSSTAYMQLSSLTSEDSAVYFCATRDGYFDYWGQGTTLTVSS
VL: DIQMTQSSSSFSVSLGDRTTITCKASEDIYNRLAWFQQKPGNAPRLLISGATSLETGVPSRFSGSGSGKDYTLSITSLQTEDVATYYCQQYWSSPWTFGGGTKLEIK
notes: recombinant Fab of m7
Take B11: the binding result in test [1] was “binds”.
